We go through two molecules from patent US20240261403A1 (published 2024).

The assay addresses T1, EGFR L858R peptide on HLA-A*33:03 (human).
T1 peptide: HVKITDFGR
Briefly: multimer staining.

B1: TCR (ii) with CDR3 alpha SEQ ID NO: 2 and CDR3 beta SEQ ID NO: 14 (Table 2, rank 2) (TCR, V domains shown)
Valpha: KQEVTQIPAALSVPEGENLVLNCSFTDSAIYNLQWFRQDPGKGLTSLLLIQSSQREQTSGRLNASLDKSSGRSTLYIAASQPGDSATYLCAATGTYKYIFGRGTSLIVHP
Vbeta: NAGVTQTPKFQVLKTGQSMTLQCAQDMNHEYMSWYRQDPGMGLRLIHYSVGAGITDQGEVPNGYNVSRSTTEDFPLRLLSAAPSQTSVYFCASSPEFARALDNQPQHFGPGTRLTVL
For B1, the binding result is recorded as “recognises”.

B2: TCR (i) with CDR3 alpha SEQ ID NO: 1 and CDR3 beta SEQ ID NO: 13 (Table 2, rank 1) (TCR, V domains shown)
Valpha: KQEVTQIPAALSVPEGENLVLNCSFTDSAIYNLQWFRQDPGKGLTSLLLIQSSQREQTSGRLNASLDKSSGRSTLYIAASQPGDSATYLCAFIGHGGSQGNLIFGRGTSLIVHP
Vbeta: NAGVTQTPKFQVLKTGQSMTLQCAQDMNHEYMSWYRQDPGMGLRLIHYSVGAGITDQGEVPNGYNVSRSTTEDFPLRLLSAAPSQTSVYFCASSMQGAMSEQFFGPGTRLTVL
As to B2, the binding result is reported as “recognises”.
